Assay results reported in publication PMC12102759.

B1: NOTCH4 peptide 1606-1621 (Neurogenic locus notch homolog protein 4), 16-mer library wild type / NSP9 (ORF1ab Nsp9, residues 4141-4253) (parent)
chain 1: QGAWLGAPEPWEPLLD
chain 2: NNELSPVALRQMSCAAGTTQTACTDDNALAYYNTTKGGRFVLALLSDLQDLKWARFPKSDGTGTIYTELEPPCRFVTDTPKGPKVKYLYFIKGLNNLNRGMVLGSLAATVRLQ
B2: NCOA2 peptide 1073-1088 (Nuclear receptor coactivator 2), 16-mer library wild type / NSP3 UBl1 (ORF1ab Nsp3a Ub1, residues 819-925) (parent)
chain 1: PSDEGALLDQLYLALR
chain 2: APTKVTFGDDTVIEVQGYKSVNITFELDERIDKVLNEKCSAYTVELGTEVNEFACVVADAVIKTLQPVSELLTPLGIDLDEWSMATYYLFDESGEFKLASHMYCSFY
B3: ICA1L peptide 453-468 (Islet cell autoantigen 1-like protein), 16-mer library wild type / NSP16 (ORF1ab Nsp16, residues 6799-7088) (parent)
chain 1: MSAWFNLFADLDPLSN
chain 2: SSQAWQPGVAMPNLYKMQRMLLEKCDLQNYGDSATLPKGIMMNVAKYTQLCQYLNTLTLAVPYNMRVIHFGAGSDKGVAPGTAVLRQWLPTGTLLVDSDLNDFVSDADSTLIGDCATVHTANKWDLIISDMYDPKTKNVTKENDSKEGFFTYICGFIQQKLALGGSVAIKITEHSWNADLYKLMGHFAWWTAFVTNVNASSSEAFLIGCNYLGKPREQIDGYVMHANYIFWRNTNPIQLSSYSLFDMSKFPLKLRGTAVMSLKEGQINDMILSLLSKGRLIIRENNRVVI
B4: AZIN2 peptide 1-16 (Antizyme inhibitor 2), 16-mer library wild type / NSP3 ADRP (ORF1ab Nsp3b ADRP, residues 1023-1192) (parent)
chain 1: MAGYLSESDFVMVEEG
chain 2: not shown

Variants of: B1
Settings: with NSP9 (ORF1ab Nsp9, residues 4141-4253); bait immobilised on MaxiSorp plates (10 µg), library pre-cleared on GST, 2 h binding at 4 °C, five washes; one round per day, days 1-4; value from days 2 and 3; keep out of graded; scale: average fractional NGS count over selection days 2 and 3

Variant	screen value
chain 1 QGGWLGAPEPWEPLLD [chain 1 A3G]	0
chain 1 QGEWLGAPEPWEPLLD [chain 1 A3E]	2.97e-05
chain 1 QGHWLGAPEPWEPLLD [chain 1 A3H]	3.7e-05
chain 1 QTAWLGAPEPWEPLLD [chain 1 G2T]	0
chain 1 QHAWLGAPEPWEPLLD [chain 1 G2H]	0
chain 1 QYAWLGAPEPWEPLLD [chain 1 G2Y]	0
chain 1 QLAWLGAPEPWEPLLD [chain 1 G2L]	0
chain 1 QWAWLGAPEPWEPLLD [chain 1 G2W]	0
chain 1 QRAWLGAPEPWEPLLD [chain 1 G2R]	1.21e-05
chain 1 QAAWLGAPEPWEPLLD [chain 1 G2A]	0
chain 1 QGAWLGAKEPWEPLLD [chain 1 P8K]	0
chain 1 QGAILGAPEPWEPLLD [chain 1 W4I]	0
chain 1 QGAQLGAPEPWEPLLD [chain 1 W4Q]	0
chain 1 QGAMLGAPEPWEPLLD [chain 1 W4M]	0
chain 1 QGAFLGAPEPWEPLLD [chain 1 W4F]	7.26e-05
chain 1 QGAHLGAPEPWEPLLD [chain 1 W4H]	0
chain 1 QGATLGAPEPWEPLLD [chain 1 W4T]	0
chain 1 SGAWLGAPEPWEPLLD [chain 1 Q1S]	7.35e-05
chain 1 GGAWLGAPEPWEPLLD [chain 1 Q1G]	5.8e-05
chain 1 VGAWLGAPEPWEPLLD [chain 1 Q1V]	3.52e-05
chain 1 QGAWLGAPEPREPLLD [chain 1 W11R]	3.62e-05
chain 1 QGAWLGAPEPKEPLLD [chain 1 W11K]	3.16e-05
chain 1 QGAWLGAPEPWEPDLD [chain 1 L14D]	2.68e-05

Variant	screen value
chain 1 QGAWLGAPEPWEPNLD [chain 1 L14N]	1.14e-05
chain 1 QGAWLGAPEPWEPELD [chain 1 L14E]	4.45e-05
chain 1 QGAWLGAPHPWEPLLD [chain 1 E9H]	4.98e-05
chain 1 QGAWLGAPRPWEPLLD [chain 1 E9R]	5.73e-05
chain 1 QGAWLGAPEPWRPLLD [chain 1 E12R]	8.31e-05
chain 1 QGAWLGAPEPWEPLWD [chain 1 L15W]	5.05e-05
chain 1 QGAWLGAPEPWEPLGD [chain 1 L15G]	6.9e-05
chain 1 QGAWHGAPEPWEPLLD [chain 1 L5H]	0
chain 1 QGAWKGAPEPWEPLLD [chain 1 L5K]	0
chain 1 QGAWVGAPEPWEPLLD [chain 1 L5V]	3.16e-05
chain 1 QGAWMGAPEPWEPLLD [chain 1 L5M]	0
chain 1 QGAWPGAPEPWEPLLD [chain 1 L5P]	3.64e-05
chain 1 QGAWYGAPEPWEPLLD [chain 1 L5Y]	0
chain 1 QGAWLQAPEPWEPLLD [chain 1 G6Q]	0
chain 1 QGAWLEAPEPWEPLLD [chain 1 G6E]	6.33e-05
chain 1 QGAWLSAPEPWEPLLD [chain 1 G6S]	0
chain 1 QGAWLFAPEPWEPLLD [chain 1 G6F]	0
chain 1 QGAWLNAPEPWEPLLD [chain 1 G6N]	0
chain 1 QGAWLLAPEPWEPLLD [chain 1 G6L]	0
chain 1 QGAWLYAPEPWEPLLD [chain 1 G6Y]	0
chain 1 QGAWLRAPEPWEPLLD [chain 1 G6R]	0
chain 1 QGAWLWAPEPWEPLLD [chain 1 G6W]	0
chain 1 QGAWLHAPEPWEPLLD [chain 1 G6H]	0

Variants of: B2
Settings: with NSP3 UBl1 (ORF1ab Nsp3a Ub1, residues 819-925); bait immobilised on MaxiSorp plates (10 µg), library pre-cleared on GST, 2 h binding at 4 °C, five washes; one round per day, days 1-4; value from days 2 and 3; keep out of graded; scale: average fractional NGS count over selection days 2 and 3

Variant	screen value
chain 1 PSDEGFLLDQLYLALR [chain 1 A6F]	1.11e-05
chain 1 PSDEGLLLDQLYLALR [chain 1 A6L]	2.33e-05
chain 1 PSDEGKLLDQLYLALR [chain 1 A6K]	0

Variants of: B3
Settings: with NSP16 (ORF1ab Nsp16, residues 6799-7088); bait immobilised on MaxiSorp plates (10 µg), library pre-cleared on GST, 2 h binding at 4 °C, five washes; one round per day, days 1-4; value from days 2 and 3; keep out of graded; scale: average fractional NGS count over selection days 2 and 3

Variant	screen value
chain 1 MSAWFNLFADIDPLSN [chain 1 L11I]	1.35e-05
chain 1 MSAWFNLFADWDPLSN [chain 1 L11W]	0
chain 1 MSAWFNLFADPDPLSN [chain 1 L11P]	0
chain 1 MSAWFNSFADLDPLSN [chain 1 L7S]	0
chain 1 MSAWFNLFNDLDPLSN [chain 1 A9N]	0
chain 1 MSAWFNLFADLDVLSN [chain 1 P13V]	0
chain 1 MSPWFNLFADLDPLSN [chain 1 A3P]	0
chain 1 MSLWFNLFADLDPLSN [chain 1 A3L]	0
chain 1 MSDWFNLFADLDPLSN [chain 1 A3D]	4.01e-05
chain 1 MSAWFNLFAYLDPLSN [chain 1 D10Y]	6.76e-05
chain 1 MSAWFNLYADLDPLSN [chain 1 F8Y]	0
chain 1 MSAWFNLFADLDPLRN [chain 1 S15R]	0
chain 1 MSAWFRLFADLDPLSN [chain 1 N6R]	0
chain 1 MSAWFKLFADLDPLSN [chain 1 N6K]	0
chain 1 MSAWLNLFADLDPLSN [chain 1 F5L]	0
chain 1 MSAWWNLFADLDPLSN [chain 1 F5W]	0
chain 1 MSAAFNLFADLDPLSN [chain 1 W4A]	0
chain 1 MLAWFNLFADLDPLSN [chain 1 S2L]	0
chain 1 MDAWFNLFADLDPLSN [chain 1 S2D]	0.00136

Variants of: B4
Settings: with NSP3 ADRP (ORF1ab Nsp3b ADRP, residues 1023-1192); bait immobilised on MaxiSorp plates (10 µg), library pre-cleared on GST, 2 h binding at 4 °C, five washes; one round per day, days 1-4; value from days 2 and 3; keep out of graded; scale: average fractional NGS count over selection days 2 and 3

Variant	screen value
chain 1 L5M	1.33e-05
chain 1 V13S	3.26e-05
chain 1 V13A	1.13e-05
chain 1 V13E	4.94e-05
chain 1 V13P	5.36e-05
chain 1 V13W	4.62e-05
chain 1 V13F	1.65e-05
chain 1 V13N	6.59e-05
chain 1 V13G	0
chain 1 E7T	0
chain 1 E7A	0
chain 1 E7S	0
chain 1 E14H	3.26e-05
chain 1 E14G	5.95e-05
chain 1 E14T	1.06e-05
chain 1 E14A	3.37e-05
chain 1 E14V	1.13e-05
chain 1 S6T	0
chain 1 S6Q	0
chain 1 S6H	0

Variant	screen value
chain 1 S6G	0
chain 1 S6W	0
chain 1 G3T	0
chain 1 G3S	2.71e-05
chain 1 G3P	0
chain 1 M12K	0
chain 1 M12D	6.55e-05
chain 1 M12G	0
chain 1 M12P	6.03e-05
chain 1 M12W	0
chain 1 M12Q	0
chain 1 F10W	2.93e-05
chain 1 F10D	0
chain 1 F10S	1.39e-05
chain 1 F10R	0
chain 1 D9T	2.66e-05
chain 1 D9H	2.63e-05
chain 1 D9A	1.5e-05
chain 1 D9I	2.23e-05
